Tests used:
Details in all cases: 20 nM; 72 h
MCF10A [1] = test: 5+ nucleoli phenotype percent effect (relative to siNT 0% and siKIF11 100%); higher = more cells with five or more nucleoli
Procedure: (§1)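 After 72 h, cells were fixed and stained with Hoechst and anti-fibrillarin, and nucleoli per nucleus were counted with CellProfiler. Values are plate-adjusted percent effect for the one-nucleolus and 5+ nucleoli phenotypes, normalised to siNT (0%) and to the positive controls siNOL11 or siKIF11 (100%), as the mean of biological triplicates. Percent viability is the nuclei count relative to siNT.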

MCF10A [2] = test: percent viability (nuclei count relative to siNT); higher = more viable cells
Procedure: as §1

MCF10A [3] = test: one-nucleolus phenotype percent effect (relative to siNT 0% and siNOL11 100%); higher = more cells with one nucleolus (ribosome biogenesis inhibition)
Procedure: as §1

Row | Sequence | 5+ nucleoli phenotype percent effect (MCF10A [1]) | percent viability (MCF10A [2]) | one-nucleolus phenotype percent effect (MCF10A [3])
1 | UCACAAAUCUAUAAUAUGCAGG [hsa-miR-4719] | 40.1% | 149% | -19.7%
2 | UGUGUCCCAUUAUUGGUGAUU [hsa-miR-3657] | -31.6% | 46.6% | 32.2%
3 | GGAGAAAUUAUCCUUGGUGUGU [hsa-miR-539-5p] | 17.9% | 55.7% | -14.8%
4 | GUUGGGGUGCAGGGGUCUGCU [hsa-miR-5572] | -19.8% | 19.7% | 43.3%
5 | GUGUCUUUUGCUCUGCAGUCA [hsa-miR-511] | -3.71% | 55.3% | -6.61%
6 | AACUGGCCCUCAAAGUCCCGCU [hsa-miR-193b-3p] | -6.55% | 16.9% | 24.4%
7 | GUGGGCUGGGCUGGGCUGGGCC [hsa-miR-3620-5p] | -31.1% | 31.3% | 27.5%
8 | AUCCUAGUCACGGCACCA [hsa-miR-7975] | -29.1% | 43.7% | 12.9%
9 | UGCCCUGCAUGGUGUCCCCACAG [hsa-miR-6799-3p] | -1.27% | 41.1% | 6.43%
10 | CAGUAACAAAGAUUCAUCCUUGU [hsa-miR-802] | -6.89% | 81.8% | -6.9%
11 | AGAGGAUACCCUUUGUAUGUU [hsa-miR-1185-5p] | 5.5% | 34.2% | 2.36%
12 | CUAUACAGUCUACUGUCUUUCC [hsa-let-7f-2-3p] | 4.65% | 70.8% | -3.58%
13 | AGGGAGGGACGGGGGCUGUGC [hsa-miR-149-3p] | -16.6% | 15.1% | 42.9%
14 | CAGGGGGACUGGGGGUGAGC [hsa-miR-6794-5p] | 7.3% | 50.1% | 5.76%
15 | CCUCUCCUCCCUGUGCCCCAG [hsa-miR-6845-3p] | 26.2% | 60.1% | -13.8%
16 | AAUGCACCCGGGCAAGGAUUCU [hsa-miR-501-3p] | -14.1% | 48.2% | 10.8%
17 | CUGGGGAGAUCCUCGAGGUUGG [hsa-miR-3150a-3p] | -16.4% | 18.9% | 23.4%
18 | CGCAUCCCCUAGGGCAUUGGUGU [hsa-miR-324-5p] | 21.4% | 76.6% | -15.6%
19 | CUGCAAAGGGAAGCCCUUUC [hsa-miR-527] | -41.4% | 32.8% | 46.6%
20 | AAUCAUUCACGGACAACACUU [hsa-miR-382-3p] | 36.3% | 97.5% | -25.4%
21 | GGGGAGGUGUGCAGGGCUGG [hsa-miR-6799-5p] | 37% | 93.2% | -29.7%
22 | CUUGGGGCAUGGAGUCCCA [hsa-miR-4260] | 9.54% | 37.7% | -6.43%
23 | UGCCUCCUCCGUGGCCUCAG [hsa-miR-6829-3p] | -1.77% | 22.7% | 0.866%

Row | Sequence | 5+ nucleoli phenotype percent effect (MCF10A [1]) | percent viability (MCF10A [2]) | one-nucleolus phenotype percent effect (MCF10A [3])
24 | AAACAUUCGCGGUGCACUUCUU [hsa-miR-543] | 0.749% | 37.4% | -1.05%
25 | ACACUGUCCCCUUCUCCCCAG [hsa-miR-6760-3p] | 56.3% | 92.8% | -27.2%
26 | UGGGUGUAGGCUGGAGCUGAGG [hsa-miR-6772-5p] | -8.54% | 17% | 23.4%
27 | GUGAAGGCCCGGCGGAGA [hsa-miR-6126] | -28.6% | 77.8% | -11.8%
28 | UUUGGGAUUGACGCCACAUGUCU [hsa-miR-6513-5p] | 91.1% | 72.6% | -20.1%
29 | GGGAGUCUACAGCAGGG [hsa-miR-4294] | -26.3% | 37.7% | 24%
30 | GGGGCUGGGGCCGGGGCCGAGC [hsa-miR-762] | 53.9% | 59.8% | -31.4%
31 | UGAUUGUCUUCCCCCACCCUCA [hsa-miR-6766-3p] | -20.7% | 43.1% | 1.17%
32 | UGCCUGGGUCUCUGGCCUGCGCGU [hsa-miR-661] | -18.5% | 23% | 23.1%
33 | UGAUGAUACAGGUGGAGGUAG [hsa-miR-3682-3p] | -7.38% | 31.5% | 19.3%
34 | GAGAGGAACAUGGGCUCAGGACA [hsa-miR-6859-5p] | 41.6% | 75.5% | -24.3%
35 | UGCGACAUUGGAAGUAGUAUCA [hsa-miR-3683] | -3.56% | 61.1% | -0.47%
36 | CAACACCAGUCGAUGGGCUGU [hsa-miR-21-3p] | -31.2% | 52.9% | 35.5%
37 | UGGCUCAGUUCAGCAGGAACAG [hsa-miR-24-3p] | -17% | 26.5% | 2.42%
38 | UUCAUUUGGUAUAAACCGCGAUU [hsa-miR-579] | -37.2% | 29% | 45.1%
39 | CGGGGCCGUAGCACUGUCUGAGA [hsa-miR-128-1-5p] | 21.2% | 26.1% | 22.5%
40 | GCGGUGGGGCCGGAGGGGCGU [hsa-miR-6786-5p] | 31.9% | 96.7% | -24.9%
41 | UCUAGAAAUGCAUGACCCACC [hsa-miR-6508-5p] | 17.2% | 112% | -15.2%
42 | GUGAGUGUGGAUCCUGGAGGAAU [hsa-miR-4658] | 0.899% | 52.7% | -8.09%
43 | CUGUGGGCUCAGCUCUGGG [hsa-miR-4265] | -38.1% | 27.1% | 42.3%
44 | GGGCGACAAAGCAAGACUCUUUCUU [hsa-miR-1273a] | -17.3% | 78.8% | 6.41%
45 | UGGCAGGGAGGCUGGGAGGGG [hsa-miR-1207-5p] | -30.5% | 24.4% | 24.5%

Reference: the supplement of paper PMC10899765
